Our source for the Km values is ChEMBL document CHEMBL1145182, “Molecular dynamics simulations of the TEM-1 beta-lactamase complexed with cephalothin” (J Med Chem, 2005).

Substrate in data set [1]: CC(=O)OCC1=C(C(=O)O)N2C(=O)[C@@H](NC(=O)Cc3cccs3)[C@H]2SC1
The experiment in a line: (§1) Binding affinity for TEM-1 beta-lactamase. Conditions: Escherichia coli.

Substrate in data set [2]: CC1(C)S[C@@H]2[C@H](NC(=O)Cc3ccccc3)C(=O)N2[C@H]1C(=O)O
The description is as §1. To be noted: Escherichia coli.

B1: Beta-lactamase TEM (Escherichia coli), P62593 (protein)
chain: MSIQHFRVALIPFFAAFCLPVFAHPETLVKVKDAEDQLGARVGYIELDLNSGKILESFRPEERFPMMSTFKVLLCGAVLSRVDAGQEQLGRRIHYSQNDLVEYSPVTEKHLTDGMTVRELCSAAITMSDNTAANLLLTTIGGPKELTAFLHNMGDHVTRLDRWEPELNEAIPNDERDTTMPAAMATTLRKLLTGELLTLASRQQLIDWMEADKVAGPLLRSALPAGWFIADKSGAGERGSRGIIAALGPDGKPSRIVVIYTTGSQATMDERNRQIAEIGASLIKHW
The Km is the substrate concentration at which the rate is half of its maximum. Consider B1, for which the Km was determined as 347 µM in data set [1] and 75 µM in data set [2].
